Test results published in publication PMC3785425.

Tests used:
[1] = target: NKTT120 (human (humanized antibody))
[2] = target: NKTT120 (human (humanized antibody)); assay: SPR; Biacore 3000; NKTT120 immobilised on the chip; FcγRI, FcγRIIIa or C1q as analyte at six different concentrations; BiaEvaluation software

Sequence of NKTT120 (human (humanized antibody)) (heavy, as listed by the source, chain 1 of 2): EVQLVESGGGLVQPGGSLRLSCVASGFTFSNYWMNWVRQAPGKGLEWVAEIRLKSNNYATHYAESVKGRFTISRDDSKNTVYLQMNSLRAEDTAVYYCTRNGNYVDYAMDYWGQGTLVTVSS
Sequence of NKTT120 (human (humanized antibody)) (light, as listed by the source, chain 2 of 2): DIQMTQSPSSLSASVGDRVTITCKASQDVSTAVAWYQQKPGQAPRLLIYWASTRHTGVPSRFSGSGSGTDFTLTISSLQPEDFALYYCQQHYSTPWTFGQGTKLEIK
Sequence of FcγRIIIa (P08637 17-254): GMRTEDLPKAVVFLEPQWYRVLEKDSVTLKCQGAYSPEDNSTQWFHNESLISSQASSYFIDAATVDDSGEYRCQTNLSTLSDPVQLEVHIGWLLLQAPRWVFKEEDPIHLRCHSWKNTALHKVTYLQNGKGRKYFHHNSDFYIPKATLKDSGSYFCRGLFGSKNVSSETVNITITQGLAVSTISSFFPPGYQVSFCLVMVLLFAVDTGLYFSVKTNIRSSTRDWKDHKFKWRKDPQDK
Sequence of FcγRI (P12314 16-374): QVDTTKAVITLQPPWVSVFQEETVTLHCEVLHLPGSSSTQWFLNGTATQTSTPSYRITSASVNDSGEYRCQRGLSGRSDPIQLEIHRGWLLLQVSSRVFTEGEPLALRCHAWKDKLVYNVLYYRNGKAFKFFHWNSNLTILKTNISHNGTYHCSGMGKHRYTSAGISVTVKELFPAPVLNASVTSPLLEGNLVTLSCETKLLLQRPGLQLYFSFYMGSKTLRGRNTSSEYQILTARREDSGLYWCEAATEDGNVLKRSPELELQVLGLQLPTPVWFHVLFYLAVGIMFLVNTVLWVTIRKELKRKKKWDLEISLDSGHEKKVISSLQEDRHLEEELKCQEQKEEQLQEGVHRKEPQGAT

Row | Substance | ADCC, cell killing of iTCR-expressing target cells by CD16-transduced NK-92 effector cells (E:T 60:1), NKTT120 at 1 and 20 µg/ml (34% to 44%) [1] | Kd [2]
1 | FcγRIIIa (from UniProt P08637 17-254) (receptor) | 44% | 122 nM
2 | FcγRI (from UniProt P12314 16-374) (receptor) |  | 12 nM
